From article PMC9456106, “PET Probes for Preclinical Imaging of GRPR-Positive Prostate Cancer: Comparative Preclinical Study of [^68Ga]Ga-NODAGA-AMBA and [^44Sc]Sc-NODAGA-AMBA” (International Journal of Molecular Sciences, 2022)

Tests used:
[1] = Octanol/water partition coefficient (logP); format: physicochemical; details: 1-octanol/water, triplicates
Experimental: For the determination of LogP value and the in-vitro serum stability, the same protocol was used as was described earlier by our research group. Briefly, for the determination of the partition coefficient (logP), 10 µL of [^68Ga]Ga-NODAGA-AMBA or [^44Sc]Sc-NODAGA-AMBA solution (approximately 5 MBq) was mixed with 500 µL of 1-octanol and 490 µL of water in a test tube. To reach equilibrium state, the mixture was firmly stirred and then centrifuged (20.000 rpm, 5 min). One-hundred microliters of the samples were pipetted into vials from each layer, and the radioactivity of the fractions was determined with a calibrated gamma counter (Perkin-Elmer Packard Cobra, Waltham, MA, USA). The measurements were performed in triplicates for both labelled compounds.

[2] = Pharmacokinetics (blood clearance) in healthy control mice; format: in vivo; details: healthy control CB17 SCID mice, i.v.
Experimental: (§1) For pharmacokinetic studies, healthy control CB17 SCID mice (n = 12) were injected intravenously with 10.8 ± 1.6 MBq of [^68Ga]Ga-NODAGA-AMBA or [^44Sc]Sc-NODAGA-AMBA under isoflurane anesthesia. Thereafter, approximately 30 μL blood samples were collected from the saphenous vein into a capillary tube at the following time points: 30, 60, 120, and 180 minutes. The volume of the blood was determined using a digital caliper. Blood samples were placed in a γ-counter and the radioactivity of each sample was measured. Results were expressed as a percentage of the injected activity per mL (% ID/mL). For the determination of in vivo serum stability of [^68Ga]Ga-NODAGA-AMBA and [^44Sc]Sc-NODAGA-AMBA, blood samples were taken from the mice at the previously mentioned time points (30, 60, 120, and 180 min). Firstly, the blood samples were centrifuged at 4°C, 10,000 rpm for 5 min. Thereafter, 50 μL samples were taken from the supernatant and mixed with ice-cold abs. ethanol (50 μL) and centrifuged again at 4°C, 10 000 rpm for 5 min. The supernatants were analyzed by analytical radio-HPLC. In all cases, the radio-HPLC chromatograms were compared to the original chromatograms of the radiotracers to find any metabolite forms.

[3] = In-vitro stability in mouse plasma, Na2EDTA and oxalic acid (radio-HPLC); format: in vitro ADME; details: mixed with mouse plasma, oxalic acid
Experimental: For in-vitro stability measurements, the labelled compounds were mixed with mouse plasma, Na2EDTA, and oxalic acid. Samples were injected at different time points to the HPLC with and without a column.
After 15 and 90 min incubation time, a 50 µL sample was taken and 50 µL abs. EtOH was added to the aliquots. Then, the samples were centrifuged (20.000 rpm, 5 min), and the supernatant was removed and diluted with the eluent of HPLC. This was followed by the performance of the analytical measurements.

[4] = Ex-vivo biodistribution in healthy control mice; design: species or system CB17 SCID mice; details: i.v.; for accumulation in the adrenal glands / accumulation in the kidneys / accumulation in the pancreas / accumulation in the urine: 30-180 min, approx.; for radiotracer uptake in blood, liver, spleen, gastrointestinal tract and thoracic organs: each investigated time point
Experimental: (§2) Thirty, 60, 120, and 180 min after the intravenous injection of 11.3 ± 1.4 MBq [^68Ga]Ga-NODAGA-AMBA or [^44Sc]Sc-NODAGA-AMBA healthy control and PC-3 tumor-bearing mice were euthanized with 5% Forane, sacrificed, and tissue samples were taken from the selected organs. The weight and the radioactivities of both the tumors and normal tissues were measured with calibrated gamma counter, and the uptake was expressed as %ID/g tissue.

PC-3 tumors = test: Ex-vivo biodistribution of PC-3 tumor-bearing mice; format: in vivo, CB17 SCID mice; details: for accumulation in PC3 tumors, blocked: 15 mg/kg BBN blocking, 15 mg/kg
Experimental: For animal experiments, 12-week-old female CB17 SCID (n = 64) were used. For the induction of GRPR-expressing tumor model, mice were anesthetized with a dedicated small animal anesthesia device (Tec3 Isoflurane Vaporizer, Eickemeyer Veterinary Equipment, Sunbury-on-Thames, UK) applying 3% isoflurane (Forane, AbbVie), 0.4 L/min O2, and 1.4 L/min N2O, and 5 × 10^6 PC-3 tumor cells in 0.9% NaCl (100 µL) were injected subcutaneously into the left shoulder area of CB17 SCID mice. In-vivo and ex-vivo experiments were carried out 14 ± 1 days after subcutaneous injection of tumor cells at the tumor volume of approximately 86 mm^3.
as §2
For blocking experiments, PC-3 tumor-bearing mice were injected intravenously with 15 mg/kg of BBN (Sigma-Aldrich) 30 min prior to the injection of 11.3 ± 1.4 MBq [^68Ga]Ga-NODAGA-AMBA or [^44Sc]Sc-NODAGA-AMBA and in-vivo and ex-vivo organ distribution studies were performed as described above.

[5] = In-vivo stability by analytical radio-HPLC of blood samples; design: species or system CB17 SCID mice; details: healthy mice, samples at 30, 60, 120, 180 min
Experimental: as §1

| SMILES | octanol/water partition coefficient (logP) [1] | half-life in the blood [2] | RCP, in-vitro stability ([3]; 15 min) | RCP, in-vitro stability ([3]; 90 min) | accumulation in the adrenal glands [4] | accumulation in the kidneys [4] | accumulation in the pancreas [4] | accumulation in the urine [4] | radiotracer uptake in blood, liver, spleen, gastrointestinal tract and thoracic organs [4] | accumulation in PC3 tumors, blocked (PC-3 tumors; 60 min) [%ID/g] | accumulation in PC3 tumors (PC-3 tumors; 60 min after i.v. injection) [%ID/g] | accumulation in PC3 tumors, blocked (PC-3 tumors; 120 min) [%ID/g] | accumulation in PC3 tumors (PC-3 tumors; 120 min after i.v. injection) [%ID/g] | in-vivo stability [5] |
| --- | --- | --- | --- | --- | --- | --- | --- | --- | --- | --- | --- | --- | --- | --- |
| CSCC[C@H](NC(=O)[C@H](CC(C)C)NC(=O)[C@H](Cc1c[nH]cn1)NC(=O)CNC(=O)[C@@H](NC(=O)[C@H](C)NC(=O)[C@H](Cc1c[nH]c2ccccc12)NC(=O)[C@H](CCC(N)=O)NC(=O)c1ccc(NC(=O)CNC(=O)CCC(C(=O)O)N2CCN(CC(=O)O)CCN(CC(=O)O)CC2)cc1)C(C)C)C(N)=O (stereo partly shown) [[^44Sc]Sc-NODAGA-AMBA] [metal not drawn] | −2.81 ± 0.14 | less than 30 minutes | over 98% | over 98% | 0.5–3 %ID/g | 2–8 %ID/g | 1–4 %ID/g | 250–450 %ID/g | Low radiotracer uptake | 0.79 ± 0.16 | 4.56 ± 0.45 | 0.69 ± 0.17 | 4.14 ± 0.47 | remained stable |
| CSCC[C@H](NC(=O)[C@H](CC(C)C)NC(=O)[C@H](Cc1c[nH]cn1)NC(=O)CNC(=O)[C@@H](NC(=O)[C@H](C)NC(=O)[C@H](Cc1c[nH]c2ccccc12)NC(=O)[C@H](CCC(N)=O)NC(=O)c1ccc(NC(=O)CNC(=O)CCC(C(=O)O)N2CCN(CC(=O)O)CCN(CC(=O)O)CC2)cc1)C(C)C)C(N)=O (stereo partly shown) [[^68Ga]Ga-NODAGA-AMBA] [metal not drawn] | −2.75 ± 0.18 | less than 30 minutes | approximately 92% | approximately 85% | 0.5–3 %ID/g | 2–8 %ID/g | 1–4 %ID/g | 250–450 %ID/g | Low radiotracer uptake | 0.60 ± 0.22 | 3.78 ± 0.93 | 0.48 ± 0.14 | 3.29 ± 1.20 | remained stable |
